Measurements as given in article PMC5028202 (ACS chemical biology, 2015).

Target: the molecule itself
Experiment: NMR structure

B1: XCL1 CC5 (A36C A49C), disulfide-locked XCL1dim variant (natural protein, UniProt P47992 22-114, looked up)
chain: VGSEVSDKRTCVSLTTQRLPVSRIKTYTITEGSLRCVIFITKRGLKVCCDPQATWVRDVVRSMDRKSNTRNNMIQTKPTGTQQSTNTAVTLTG
stoichiometry N: 2
